The record followed here is patent US20250043028A1 (Hoffmann-La Roche, published 2025).

In test [1] the target is T1, human CEA expressed on tumor cells (LS-174T, MKN-45, MC38-huCEA) (human, UniProt P06731 35-685).
T1 construct: whole, on cells; also called Carcinoembryonic antigen
T1 sequence (looked up): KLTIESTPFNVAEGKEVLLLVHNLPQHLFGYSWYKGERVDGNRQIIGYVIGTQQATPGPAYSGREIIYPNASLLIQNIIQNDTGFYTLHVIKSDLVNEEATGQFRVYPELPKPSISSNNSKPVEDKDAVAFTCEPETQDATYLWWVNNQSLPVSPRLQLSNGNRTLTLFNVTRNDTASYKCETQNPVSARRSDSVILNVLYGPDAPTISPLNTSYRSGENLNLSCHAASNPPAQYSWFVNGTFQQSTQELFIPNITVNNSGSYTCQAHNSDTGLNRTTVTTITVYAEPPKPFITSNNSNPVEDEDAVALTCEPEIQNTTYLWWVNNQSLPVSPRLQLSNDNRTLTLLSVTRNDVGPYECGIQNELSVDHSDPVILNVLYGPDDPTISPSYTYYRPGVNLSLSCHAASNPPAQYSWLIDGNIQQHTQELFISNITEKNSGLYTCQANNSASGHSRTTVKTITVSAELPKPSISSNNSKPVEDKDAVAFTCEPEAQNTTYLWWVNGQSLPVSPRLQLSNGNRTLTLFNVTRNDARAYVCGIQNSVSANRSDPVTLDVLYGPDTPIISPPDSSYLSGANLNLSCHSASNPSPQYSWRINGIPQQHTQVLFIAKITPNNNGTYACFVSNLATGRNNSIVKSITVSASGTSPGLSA
Description: flow cytometry on LS-174T cells; CL/CH1 exchange; CEA on LS-174T cells. The procedure:
(§1) Binding of the different bispecific constructs to CD3 on Jurkat cells (ATCC #TIB-152), and the respective tumor antigen on target cells, was determined by FACS. Briefly, cells were harvested, counted and checked for viability. 0.15-0.2 million cells per well (in PBS containing 0.1% BSA; 90 μl) were plated in a round-bottom 96-well plate and incubated with the indicated concentration of the bispecific constructs and corresponding IgG controls (10 μl) for 30 min at 4° C. For a better comparison, all constructs and IgG controls were normalized to same molarity. […] Bound constructs were detected using a FACSCantoII (Software FACS Diva). The “(scFv)₂” molecule was detected using a FITC-conjugated anti-His antibody (Lucerna, #RHIS-45F-Z). […] Unless otherwise indicated, cells were fixed with 100 μl/well fixation buffer (BD #554655) for 15 min at 4° C. in the dark, centrifuged for 6 min at 400×g and kept in 200 μl/well PBS containing 0.1% BSA until the samples were measured with FACS CantoII. EC50 values were calculated using the GraphPad Prism software.
(§2) As a control, the equivalent maximum concentration of the corresponding IgGs and the background staining due to the labeled 2ndary antibody (goat anti-human FITC-conjugated AffiniPure F(ab′)₂ Fragment, Fcγ Fragment-specific, Jackson Immuno Research Lab #109-096-098) were assessed as well.

The target of test [2] is T1, human CEA expressed on tumor cells …. Description: cell-based or functional assay.
Test [3] concerns the target T2, human CD3 expressed on Jurkat cells (human, UniProt P07766 23-207).
T2 construct: CD3 as part of the T cell receptor complex on Jurkat cells; also called huCD3; human CD3 on cells
The test is described as follows: flow cytometry on Jurkat cells; CL/CH1 exchange; CD3 on Jurkat cells. The procedure:
as §1, §2
(Flow cytometry measures light scatter and fluorescence of single cells or particles in a stream.)

Test [4] addresses T2, human CD3 expressed on Jurkat cells. Description: flow cytometry on Jurkat cells; VL/VH exchange; CD3 on Jurkat cells. The method, then: as §1, §2
Test [5] deals with T1, human CEA expressed on tumor cells …. The test is described as follows: flow cytometry on LS-174T cells; VL/VH exchange; CEA on LS-174T cells. The method, then: as §1, §2
In test [6] the target is T3, HuFcγRIIIa-V158-K6H6 (human, UniProt P08637 17-208).
T3 construct: Captured on an anti-Penta His antibody on a CM5 chip; also called human FcγRIIIa-V158; human FcγRIIIa; not shown: K6H6 tag
T3 sequence (P08637 17-208 F176V): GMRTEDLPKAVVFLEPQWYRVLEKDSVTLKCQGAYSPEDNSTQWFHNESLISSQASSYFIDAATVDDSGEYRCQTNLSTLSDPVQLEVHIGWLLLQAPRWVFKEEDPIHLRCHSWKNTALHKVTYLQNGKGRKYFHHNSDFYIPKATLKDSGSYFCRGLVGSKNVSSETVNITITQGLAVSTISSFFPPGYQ
Description: SPR Biacore T100, 25 °C, kinetic fit, one concentration (1000 nM); receptor captured via anti-Penta His. The method, then: (§3) For analyzing interaction of different Fc-variants with human FcγRIIIa-V158 and murine FcγRIV direct coupling of around 6,500 resonance units (RU) of the anti-Penta His antibody (Qiagen) is performed on a CM5 chip at pH 5.0 using the standard amine coupling kit (Biacore, Freiburg/Germany). HuFcγRIIIa-V158-K6H6 and muFcγRIV-aviHis-biotin are captured for 60 s at 4 and 10 nM respectively.
(§4) Constructs with different Fc-mutations are passed through the flow cells for 120 s at a concentration of 1000 nM with a flow rate of 30 μl/min. The dissociation is monitored for 220 s. Bulk refractive index differences are corrected for by subtracting the response obtained in a reference flow cell. Here, the Fc-variants are flown over a surface with immobilized anti-Penta His antibody but on which HBS-EP has been injected rather than HuFcγRIIIa-V158-K6H6 or muFcγRIV-aviHis-biotin. Affinity for human FcγRIIIa-V158 and murine FcγRIV was determined for wild-type Fc using a concentration range from 500-4000 nM.
(§5) The steady state response was used to derive the dissociation constant KD by non-linear curve fitting of the Langmuir binding isotherm. Kinetic constants were derived using the Biacore T100 Evaluation Software (vAA, Biacore AB, Uppsala/Sweden), to fit rate equations for 1:1 Langmuir binding by numerical integration.

Test [7] addresses T3, HuFcγRIIIa-V158-K6H6. Description: SPR Biacore T100, 25 °C, kinetic fit (value in brackets, not explained); receptor captured via anti-Penta His. The procedure:
as §3, §4, §5
A general note: Surface plasmon resonance follows binding to a sensor surface in real time, without labels.

For test [8], the target named is T4, muFcγRIV-aviHis-biotin (murine, UniProt A0A0B4J1G0 21-203, Biotin on the lysine of the Avi tag (tag left out of the letters); C-terminal His tag used for capture by the anti-Penta His antibody).
T4 construct: Captured on an anti-Penta His antibody on a CM5 chip; also called murine FcγRIV; not shown: Avi-His tag (and any linker to it)
T4 sequence: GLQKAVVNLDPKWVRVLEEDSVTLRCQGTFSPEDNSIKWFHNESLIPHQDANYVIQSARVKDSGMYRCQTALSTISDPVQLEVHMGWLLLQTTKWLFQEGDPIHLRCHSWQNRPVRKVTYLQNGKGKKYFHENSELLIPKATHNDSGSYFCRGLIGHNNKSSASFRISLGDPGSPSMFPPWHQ
Description: SPR Biacore T100, 25 °C, kinetic fit; receptor captured via anti-Penta His. The procedure: as §3, §4, §5

Test [9] addresses T4, muFcγRIV-aviHis-biotin. Description: SPR Biacore T100, 25 °C, steady state; receptor captured via anti-Penta His, construct 500-4000 nM. The procedure:
as §3, §4, §5

The target in test [10] is T3, HuFcγRIIIa-V158-K6H6. The test is described as above. The procedure: as §3, §4, §5

T2 sequence (P07766 23-207 limits assumed): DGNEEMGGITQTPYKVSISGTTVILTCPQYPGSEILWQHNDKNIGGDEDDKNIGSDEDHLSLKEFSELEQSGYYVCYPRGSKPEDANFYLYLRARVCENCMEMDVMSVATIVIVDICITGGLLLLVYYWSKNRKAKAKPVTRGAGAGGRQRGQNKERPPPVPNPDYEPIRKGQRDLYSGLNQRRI

B1: “2+1 IgG Crossfab, inverted”; CL/CH1 exchange (CH1A1A/V9) (anti-CEA/anti-huCD3) (bispecific antibody)
chain 1: QVQLVQSGAEVKKPGASVKVSCKASGYTFTEFGMNWVRQAPGQGLEWMGWINTKTGEATYVEEFKGRVTFTTDTSTSTAYMELRSLRSDDTAVYYCARWDFAYYVEAMDYWGQGTTVTVSSASTKGPSVFPLAPSSKSTSGGTAALGCLVKDYFPEPVTVSWNSGALTSGVHTFPAVLQSSGLYSLSSVVTVPSSSLGTQTYICNVNHKPSNTKVDKKVEPKSCDKTHTCPPCPAPEAAGGPSVFLFPPKPKDTLMISRTPEVTCVVVDVSHEDPEVKFNWYVDGVEVHNAKTKPREEQYNSTYRVVSVLTVLHQDWLNGKEYKCKVSNKALGAPIEKTISKAKGQPREPQVCTLPPSRDELTKNQVSLSCAVKGFYPSDIAVEWESNGQPENNYKTTPPVLDSDGSFFLVSKLTVDKSRWQQGNVFSCSVMHEALHNHYTQKSLSLSPGK
chain 2: DIQMTQSPSSLSASVGDRVTITCKASAAVGTYVAWYQQKPGKAPKLLIYSASYRKRGVPSRFSGSGSGTDFTLTISSLQPEDFATYYCHQYYTYPLFTFGQGTKLEIKRTVAAPSVFIFPPSDEQLKSGTASVVCLLNNFYPREAKVQWKVDNALQSGNSQESVTEQDSKDSTYSLSSTLTLSKADYEKHKVYACEVTHQGLSSPVTKSFNRGEC
chain 3: DIQMTQSPSSLSASVGDRVTITCRASQDIRNYLNWYQQKPGKAPKLLIYYTSRLESGVPSRFSGSGSGTDYTLTISSLQPEDFATYYCQQGNTLPWTFGQGTKVEIKSSASTKGPSVFPLAPSSKSTSGGTAALGCLVKDYFPEPVTVSWNSGALTSGVHTFPAVLQSSGLYSLSSVVTVPSSSLGTQTYICNVNHKPSNTKVDKKVEPKSC
chain 4: not shown
notes: also called CL/CH1-exchange construct
B1 returned an EC50 in test [1] of 6.7 nM. In [2], the “EC50 of killing (LDH release) of LS-174T cells, human PBMCs, E:T 10:1, 28 h” value amounted to 0.673 nM and the “EC50 of killing (LDH release) of MKN-45 cells, human PBMCs, E:T 10:1, 28 h” value worked out at 0.115 nM. The same molecule came in with an EC50 in [3] of 3.9 nM.

B2: “2+1 IgG Crossfab, inverted”; VL/VH exchange (CH1A1A/V9) (anti-CEA/anti-huCD3) (bispecific antibody)
chain 1: EVQLVESGGGLVQPGGSLRLSCAASGYSFTGYTMNWVRQAPGKGLEWVALINPYKGVSTYNQKFKDRFTISVDKSKNTAYLQMNSLRAEDTAVYYCARSGYYGDSDWYFDVWGQGTLVTVSSASVAAPSVFIFPPSDEQLKSGTASVVCLLNNFYPREAKVQWKVDNALQSGNSQESVTEQDSKDSTYSLSSTLTLSKADYEKHKVYACEVTHQGLSSPVTKSFNRGEC
chain 2: not shown
chain 3: B1 chain 1
chain 4: B1 chain 2
notes: also called VL/VH-exchange construct
On to B2, for which, in test [2], the “EC50 of killing (LDH release) of LS-174T cells, human PBMCs, E:T 10:1, 28 h” value worked out at 0.955 nM and the “EC50 of killing (LDH release) of MKN-45 cells, human PBMCs, E:T 10:1, 28 h” value amounted to 0.243 nM. The EC50 in [4] was found to be 4.6 nM. A half-maximal effect in [5] (EC50) was put at 9.3 nM.

B3: “2+1 IgG scFab, wt” (anti-MCSP/anti-huCD3) (bispecific antibody)
chain 1: DIVLTQSPSSLSASLGDRVTISCSASQGIRNYLNWYQQRPDGTVKLLIYYTSSLHSGVPSRFSGSGSGTDYSLTISNLEPEDIATYYCQQYSKLPWTFGGGTKLEIKRTVAAPSVFIFPPSDEQLKSGTASVVCLLNNFYPREAKVQWKVDNALQSGNSQESVTEQDSKDSTYSLSSTLTLSKADYEKHKVYACEVTHQGLSSPVTKSFNRGEC
chain 2: not shown
chain 3: not shown
notes: Wild-type Fc domain; vectors transfected 1:2:1 (heavy chain : light chain : heavy chain-scFab); also called Fc-wt; copies: 2 + 1 + 1
Take B3: the Kd in the test with HuFcγRIIIa-V158-K6H6 [6] turned out to be 600 nM; with HuFcγRIIIa-V158-K6H6 [7], 1200 nM; in the test with muFcγRIV-aviHis-biotin [8], 576 nM; with muFcγRIV-aviHis-biotin [9] it was 1500 nM; with HuFcγRIIIa-V158-K6H6 [10] it was 3470 nM.

The term EC50 denotes the concentration needed to bring the measured effect to its halfway point. Low values mean greater potency, high ones weaker potency. A word on the Kd: it is the equilibrium constant for the complex coming apart. The low end stands for tighter binding, the high end for weaker binding.
